Assay results reported in patent publication US20130336947, “PEPTIDES AND USES” (FUNDACIÓ PRIVADA CENTRE DE REGULACIÓ GENÓMICA, published 2013).

What was measured:
Conditions in all cases: tags: N-terminal NLS PKKKRKV; TNT T7 expression from PCR product; label: DIG
ZF6xHunt [1] = biological target: ZF6xHunt (Artificial); assay: EMSA; binds equally to (GCA-GCT)x3
ZF6xHunt [2] = biological target: ZF6xHunt (Artificial); assay: EMSA; binds equally to (GCA)x6
ZF6xHunt [3] = biological target: ZF6xHunt (Artificial); assay: EMSA; specific versus mutated sequences

Chain of ZF6xHunt (Artificial) (chain, as listed by the source): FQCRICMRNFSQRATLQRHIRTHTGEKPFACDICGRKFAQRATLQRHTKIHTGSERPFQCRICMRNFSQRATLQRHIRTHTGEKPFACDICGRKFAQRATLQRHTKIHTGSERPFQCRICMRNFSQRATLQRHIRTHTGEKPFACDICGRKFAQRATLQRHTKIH

B1: (GCA)x6 probe (dsDNA)
DNA 1: GCAGCAGCAGCAGCAGCA
DNA 2: TGCTGCTGCTGCTGCTGC
ZF6xHunt [1]
  binding result: binds

B2: (GCA-GCT)x3 alternate probe (dsDNA)
DNA 1: GCAGCTGCAGCTGCAGCT
DNA 2: AGCTGCAGCTGCAGCTGC
ZF6xHunt [2]
  binding result: binds

B3: (CAG)x7 probe (dsDNA)
DNA 1: CAGCAGCAGCAGCAGCAGCAG
DNA 2: CTGCTGCTGCTGCTGCTGCTG
ZF6xHunt [3]
  binding result: binds
